Measured values from paper PMC5344674.

Columns and labels:
[1] = molecular target: Orsay virus full-length δ protein (Orsay virus); assay: native MS; direct infusion by nano-spray, 10ug/mL protein complex in 5% ACN, 0.1% FA, Orbitrap Fusion Lumos; non-denaturing conditions; intact pentamer
[2] = molecular target: Orsay virus full-length δ protein (Orsay virus); assay: AUC; sedimentation velocity, 27.6 μM δ, 20°C, 30,000 rpm, 50 mM TRIS pH 7.5, 250 mM NaCl; PCSA-DS molar mass transformation
[3] = molecular target: Orsay virus mini-fusion protein CP-δ(215–485) (Orsay virus); assay: SEC; Superdex 200 gel filtration; elution buffer 50 mM Tris-HCl pH 7.5, 250 mM NaCl, 2-ME, 1 mM NaN3
[4] = molecular target: Orsay virus δ(1–66) (Orsay virus); assay: crystal structure; hanging-drop vapor diffusion at 20°C; SAD with SeMet crystals, refined against native data at 2.22 Å

Orsay virus full-length δ protein (natural protein)
stoichiometry N [1]: 5 | stoichiometry N [2]: 5

Orsay virus mini-fusion protein CP-δ(215–485) (domain or fragment)
stoichiometry N [3]: 5

Orsay virus δ(1–66) (domain or fragment)
stoichiometry N [4]: 5
